# According to US20180289832A1 (MAGENTA THERAPEUTICS, published 2018):
# B1: murine anti-CD137 antibody BBK2 (BBK2-mIgG1) (antibody, V domains shown)
# VH: QVQLQQPGAELVRPGASVKLSCKASGYTFTSYWINWVKQRPGQGLEWIGNIYPSDSYTNYNQKFKDKATLTVDKSSNTVYMQLNSPTSEDSAVYYCTRNGVEGYPHYYAMEYWGQGTSVTVSS
# VL: DIQMTQTTSALSASLGDRVTIGCRASQDLSNHLYWYQQKPDGTVKLLIYYTSRLHSGVPSRFSGSGSGTDYSLTIRNLEQEDVATYFCQQGYTLPYTFGGGTKLEIK
# notes: Mouse monoclonal IgG1, kappa (Thermo Fisher); also called BBK-mIgG1; murine BBK2
# Legend:
# [1] = target: T1, human CD137 (hCD137) stably over-expressed on Jurkat cells (human, UniProt Q07011 24-255); test: flow cytometry on Jurkat cells over-expressing hCD137; antibody titration 4 h at 4 C, anti-mouse AF488 secondary, geometric MFI
# T1 construct: also called 4-1BB; TNFRSF9
# T1 sequence (Q07011 24-255 limits assumed): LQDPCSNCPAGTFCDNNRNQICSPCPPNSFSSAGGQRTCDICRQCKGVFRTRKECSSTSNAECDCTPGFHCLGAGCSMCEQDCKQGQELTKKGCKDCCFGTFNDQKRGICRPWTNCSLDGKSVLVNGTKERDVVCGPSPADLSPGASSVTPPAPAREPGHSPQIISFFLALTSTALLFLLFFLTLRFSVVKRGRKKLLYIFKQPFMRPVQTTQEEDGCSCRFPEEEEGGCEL
# Procedure: (§1) Jurkat cells (i.e., an immortalized human T lymphocyte cell line) characterized by stable, over-expression of hCD137 were plated at 20,000 cells/well and stained with a titration of primary murine anti-CD137 antibody BBK2 (BBK2-mIgG1) for 4 hours at 4° C. Secondary anti-mouse AF488 stain, at a constant amount, was added for 30 minutes at 4° C. After washing, plates were run on a flow cytometer and binding of BBK2-mIgG1 (and the negative control, i.e., mIgG1) was determined based on geometric mean fluorescence intensity in the AF488 channel.
# [2] = target: T1, human CD137 (hCD137) stably …; test: flow cytometry on Jurkat cells stably over-expressing hCD137; titration of the primary antibody 4 h at 4 °C, secondary anti-mouse AF488, gMFI
# Procedure: as §1
binder,measurement,setting,value
B1,EC50,[1],35 µM
same,EC50,[2],35 pM
